Patent publication US20070243589A1 (Pfizer, published 2007)

Columns and labels:
human IL-22 [1] = target: T1, human IL-22 (human, UniProt Q9GZX6 34-179); test: SPR (Biacore), antibody amine-coupled to CM5 chip, human IL-22 as analyte, 1:1 model
T1 construct: Construct used in SPR, ELISA and cell assays is not described; also called huIL-22
T1 sequence: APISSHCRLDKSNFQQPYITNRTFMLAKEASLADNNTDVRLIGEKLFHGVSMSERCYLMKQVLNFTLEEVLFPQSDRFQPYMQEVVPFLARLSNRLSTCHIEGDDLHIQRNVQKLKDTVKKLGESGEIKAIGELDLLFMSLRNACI
Protocol: To prepare the biosensor surface for the human monoclonal antibodies, either human monoclonal antibody (356A11 or 368D04) or control antibody PD-1 (#17) were immobilized onto a research-grade carboxymethyl dextran chip (CM5) using standard amine coupling. The surface was activated with EDC/NHS. The capturing antibodies were injected at a concentration of 1 μg/ml in sodium acetate buffer (pH 5.5). Remaining activated groups were blocked with 1.0 M ethanolamine (pH 8.0). The first flow cell was used as a reference surface to correct for bulk refractive index, matrix effects, and non-specific binding. The second, third, and fourth flow cells were coated with the capturing molecule.
The kinetic data were analyzed using BIAevaluation software 3.0.2 applied to a 1:1 model. The apparent dissociation (Kd) and association (Kₐ) rate constants were calculated from the appropriate regions of the sensorgrams using a global analysis. The affinity constants of the interaction between antibody and analyte were calculated from the kinetic rate constants by the following formulae: KD=Kd/Kₐ, where KD is the dissociation constant and KA=Kₐ/Kd, where KA is the association constant.

human IL-24 = target: T2, human IL-24 (human, UniProt Q13007 52-206, limits assumed); test: BIA (surface plasmon resonance)
T2 sequence (looked up): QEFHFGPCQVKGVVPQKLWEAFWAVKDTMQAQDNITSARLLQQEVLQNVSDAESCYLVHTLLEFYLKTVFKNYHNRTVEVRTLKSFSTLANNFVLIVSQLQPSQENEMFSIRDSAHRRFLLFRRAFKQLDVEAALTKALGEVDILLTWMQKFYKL

human IL-10 = human IL-10 (human, UniProt P22301 19-178); test: BIA (surface plasmon resonance)
human IL-20 = target: T3, human IL-20 (human, UniProt Q9NYY1 25-176); test: BIA (surface plasmon resonance)
T3 sequence (looked up): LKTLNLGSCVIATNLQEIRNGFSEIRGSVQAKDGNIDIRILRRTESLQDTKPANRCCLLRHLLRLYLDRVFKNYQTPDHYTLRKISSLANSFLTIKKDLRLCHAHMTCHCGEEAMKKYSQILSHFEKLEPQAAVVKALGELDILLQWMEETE

human IL-19 = target: T4, human IL-19 (human, UniProt Q9UHD0 25-177); test: BIA (surface plasmon resonance)
T4 sequence (looked up): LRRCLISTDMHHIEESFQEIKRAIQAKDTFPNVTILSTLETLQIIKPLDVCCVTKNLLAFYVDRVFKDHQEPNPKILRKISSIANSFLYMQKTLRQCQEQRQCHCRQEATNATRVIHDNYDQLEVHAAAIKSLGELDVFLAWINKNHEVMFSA

human IL-29 = human IL-29 (human, UniProt Q8IU54 20-200); test: BIA (surface plasmon resonance)
human IL-28A = target: T5, human IL-28A (human, UniProt Q8IZJ0 26-200); test: BIA (surface plasmon resonance)
T5 sequence (looked up): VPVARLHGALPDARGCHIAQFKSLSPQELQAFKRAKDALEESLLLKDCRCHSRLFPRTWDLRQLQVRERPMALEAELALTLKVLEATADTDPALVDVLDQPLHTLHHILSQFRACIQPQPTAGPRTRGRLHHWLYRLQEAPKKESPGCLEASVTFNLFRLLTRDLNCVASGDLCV

human IFN-ω = target: T6, human IFN-ω (human, UniProt P05000 24-195); test: BIA (surface plasmon resonance)
T6 sequence (looked up): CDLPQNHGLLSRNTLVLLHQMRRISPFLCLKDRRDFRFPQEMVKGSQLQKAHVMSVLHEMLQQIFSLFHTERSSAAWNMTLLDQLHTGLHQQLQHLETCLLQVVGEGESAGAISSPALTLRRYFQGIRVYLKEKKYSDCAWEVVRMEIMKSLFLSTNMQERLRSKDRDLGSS

human IL-22 [2] = target: T1, human IL-22; test: cell-based or functional assay
rat IL-22 [3] = target: T7, rat IL-22 (rat, UniProt G3V6X6 34-178); test: cell-based or functional assay
T7 sequence: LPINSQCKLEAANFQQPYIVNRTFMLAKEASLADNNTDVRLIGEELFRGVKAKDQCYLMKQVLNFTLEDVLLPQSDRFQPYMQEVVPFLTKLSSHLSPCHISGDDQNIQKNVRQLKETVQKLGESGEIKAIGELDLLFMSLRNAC

monkey IL-22 [4] = target: monkey IL-22 (monkey); test: cell-based or functional assay
murine IL-22 [5] = target: T8, murine IL-22 (murine, UniProt Q9JJY9 34-179); test: cell-based or functional assay
T8 sequence: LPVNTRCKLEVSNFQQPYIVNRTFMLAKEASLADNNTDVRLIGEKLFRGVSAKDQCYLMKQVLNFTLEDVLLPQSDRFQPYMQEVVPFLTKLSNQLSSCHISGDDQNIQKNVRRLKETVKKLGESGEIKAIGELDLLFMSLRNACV

human IL-22 [6] = target: T1, human IL-22; test: cell-based or functional assay; remark: listed apart in the source
rat IL-22 [7] = target: T7, rat IL-22; test: cell-based or functional assay; remark: listed apart in the source
monkey IL-22 [8] = target: monkey IL-22 (monkey); test: cell-based or functional assay; remark: listed apart in the source
murine IL-22 [9] = target: T8, murine IL-22; test: cell-based or functional assay; remark: listed apart in the source

Sequence of human IL-10 (P22301 19-178 limits assumed): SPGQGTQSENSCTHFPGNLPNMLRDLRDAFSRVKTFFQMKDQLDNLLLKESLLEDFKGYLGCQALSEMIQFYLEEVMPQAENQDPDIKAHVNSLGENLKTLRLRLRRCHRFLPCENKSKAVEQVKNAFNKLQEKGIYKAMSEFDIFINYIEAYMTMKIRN
Sequence of human IL-29 (Q8IU54 20-200 limits assumed): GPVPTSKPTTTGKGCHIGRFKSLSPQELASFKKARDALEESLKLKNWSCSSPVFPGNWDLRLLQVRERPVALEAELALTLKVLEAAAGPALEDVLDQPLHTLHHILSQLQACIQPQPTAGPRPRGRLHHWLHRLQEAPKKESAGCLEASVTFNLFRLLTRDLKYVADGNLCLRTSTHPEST

Ka (human IL-22 [1]): 1.85e+10 M⁻¹
Kd (human IL-22 [1]): 0.054 nM
koff (human IL-22 [1]): 4.27e-06 s⁻¹
kon (human IL-22 [1]): 79100 M⁻¹ s⁻¹
binding result (human IL-24): no binding
binding result (human IL-10): no binding
binding result (human IL-20): no binding
binding result (human IL-19): no binding
binding result (human IL-29): no binding
binding result (human IL-28A): no binding
binding result (human IFN-ω): no binding
IC50 in GROa cell based assay (human IL-22 [2]): 0.124 nM
IC50 in GROa cell based assay (rat IL-22 [3]): 0.211 nM
IC50 in GROa cell based assay (monkey IL-22 [4]): 0.0896 nM
IC50 in GROa cell based assay (murine IL-22 [5]): 0.144 nM
IC50 in BaF3 cell based assay (human IL-22 [6]): 0.00357 nM
IC50 in BaF3 cell based assay (rat IL-22 [7]): 0.0107 nM
IC50 in BaF3 cell based assay (monkey IL-22 [8]): 0.00258 nM
IC50 in BaF3 cell based assay (murine IL-22 [9]): 0.00253 nM
B1: 356A11, human monoclonal anti-IL-22 antibody as used in Examples 10 and 11 (antibody, V domains shown)
VH: QVQLVQSGAEVKKPGASVKVSCKASGYTFTNYYMHWVRQAPGQGLEWVGWINPYTGSAFYAQKFRGRVTMTRDTSISTAYMELSRLRSDDTAVYYCAREPEKFDSDDSDVWGRGTLVTVSS
VL: QAVLTQPPSVSGAPGQRVTISCTGSSSNIGAGYGVHWYQQLPGTAPKLLIYGDSNRPSGVPDRFSGSKSGTSASLAITGLQAEDEADYYCQSYDNSLSGYVFGGGTQLTVLG
